# Test results reported in the DeepSol protein solubility set.
# Experiment: soluble on expression in E. coli; label from the status in PepcDB or PDB records
row,Sequence,soluble on expression in E. coli
1,MGSDKIHHHHHHMTHPLLAIDNLSIAFRQQGETQTVVHNLSLEVAVGETLALVGESGSGKSISALSVLRLLPTPPASYPSGDIRFHGQSLLHADEATLRGVRGNRIAMIFQEPMVSLNPLHTLEKQLYEVLSLHRGMRKQAARGEILDCLERVGIRQAPRRLADYPHQLSGGERQRVMIAMALLTRPELLIADEPTTALDVSVQAQILQLLRELKQELNMGLLFITHNLSIVRQLADRVAVMQNGRCVEHNDCRALFSAPAHPYTQRLLDSEPDGEPVPLAADAPVLLQADDLKVAFPVRKGILRRVVDHHRVVNSLSFQLRAGETLGLVGESGSGKSTTGLALLRLIPSGGKITFAGQPIQGRNRRQLLPLRRQMQVVFQDPNSSLNPRLTAQQIIEEGLRVHQPTLTAAEREQAVILAMQEVGLDPASRQRYPAAFSGGQRQRIAIARALIVKPQLIVLDEPTSSLDKTVQAQILNLLKALQRKHQLAYIFISHDLGVVRALCHQVMVLRQGEVVEQGECKSVFSAPRHEYTRQLLALS,not soluble
2,MEAKTNTFLLVAERWWNVKKTSVTEDYADDIWRSLERDIFPAIGDISITEIKAHTLVKAVQPVQARGALETVRRLCQRINEVMIYAQNTGLIDAVPSVNIGKAFELEHHHHHH,not soluble
3,MSLEIIKTGLAAFGMSGQVFHAPFISTNPHFELYKIVERSKELSKERYPQASIVRSFKELTEDPEIDLIVVNTPDNTHYEYAGMALEAGKNVVVEKPFTSTTKQGEELIALAKKKGLMLSVYQNRRWDADFLTVRDILAKSLLGRLVEYESTFARYRNFIKPNTWKETGESGGGLTYNLGSHLIDQAIQLFGMPEAVFADLGILREGGKVDDYFIIHLLHPSLAPNVKITLKASYLMREAEPRFALHGTLGSYVKYGVDKQEAALLAGEIPERPNWGEESEQEWGLLHTEINGKEICRKYPGIAGNYGGFYQNIYEHLCLGQPLETHAQDILNVIRIIEAAYQSHRENKIVNLKEGHHHHHH,soluble
4,MDAFRLAPCGPLRGRLRVPGDKSVTHRGLMLLALAEGEGRLFYPLKAGDTLSTARVLQALGAEVREEGPHFLVRGRGLRFQEPEDVLDCGNAGTLMRLLLGLLAGQEGLFAVLTGDASLRRRPMGRVVAPLRAMGARVDGREEGERAPLAVRGAPLRGLRYTLPVPSAQVKSALLLAGLFAEGVTKVEEPTPTRDHTERLFRHFGLPLEVEGRKVRTWRTGPFPAKDLVVPGDFSSAAFFLVAALVTPGSEVVVEGVGLNPTRTGLLTVLKAMGADLEWQVLEGEAGEPVGWVRARHSLLKGVAVDPGLIPLMVDEVPVLAAAAAWAEGETYIPGLSELRVKESDRVRAIAENLRALGVEVEEGPDWLRIRGGGVRPGRVRPFHDHRIAMAFAVAGLPVGVEVEEPHWAEISYPGFFQDLLRLCAAS,soluble
5,MGSDKIHHHHHHMRRVISIFRKLSAVYCHTGNFAEGIRVCKYALGRFTEMEDKYKCIFTFNMSLYYNYLGEYGKALNAITGFESVIKATYEDRYYKVLLLKADCYYGAERYAESLSIYNKLISITLKDDFNNLCVYYNNMTQVYLRMGKRDMAVNCINTVINNLHNISDDFEALPQIYAELGKSYLMMADNDKSIKYLTIALKLSKDFKYYSVTKDILNELSKIKGNSNKLKLKDEFIILTENMGRSYDSLNHSLVFNIIQYYTRLGDVASINELCEYCKERKVG,not soluble
6,MARPLKEGLDYFPLDVDADYDDKFQLIETLHGPTGFAIMIKLFMKIYSQNFYYKWTETEQILFAKRVNVDINTLKTVVNDCIKYDLFDNNLFSEFQILTSLGVQERYFTAIGRRKKQIVVLEYLLLDRPEVINLCPKIVFANINVVNDDINAEQEELMPALSAQTKGKESKVNESKAVVSEQEKLPEKIVKEKPTTTAYKFWEENVAITGLSEFDRELLKKLISLGGNELTVHAMKKAIELNRRRMKTVDTVLRGWLDNGVKTTAEADEQEKNWNGGAKKNARAEPAKQEIKISDQYNFGATRTD,not soluble
7,MMAYSDTTMMSDDIDWLRSHRGVCKVDLYNPEGQQDQDRKVICFVDVSTLNVEDKDYKDAASSSSEGNLNLGSLEEKEIIVIKDTEKKDQSKTEGSVCLFKQAPSDPVSVLNWLLSDLQKYALGFQHALSPSTSTCKHKVGDTEGEYHRASSENCYSVYADQVNIDYLMNRPQNLRLEMTAAKNTNNNQSPSAPPAKPPSTQRAVISPDGECSIDDLSFYVNRLSSLVIQMAHKEIKEKLEGKSKCLHHSICPSPGNKERISPRTPASKIASEMAYEAVELTAAEMRGTGEESREGGQKSFLYSELSNKSKSGDKQMSQRESKEFADSISKGLMVYANQVASDMMVSLMKTLKVHSSGKPIPASVVLKRVLLRHTKEIVSDLIDSCMKNLHNITGVLMTDSDFVSAVKRNLFNQWKQNATDIMEAMLKRLVSALIGEEKETKSQSLSYASLKAGSHDPKCRNQSLEFSTMKAEMKERDKGKMKSDPCKSLTSAEKVGEHILKEGLTIWNQKQGNSCKVATKACSNKDEKGEKINASTDSLAKDLIVSALKLIQYHLTQQTKGKDTCEEDCPGSTMGYMAQSTQYEKCGGGQSAKALSVKQLESHRAPGPSTCQKENQHLDSQKMDMSNIVLMLIQKLLNENPFKCEDPCEGENKCSEPRASKAASMSNRSDKAEEQCQEHQELDCTSGMKQANGQFIDKLVESVMKLCLIMAKYSNDGAALAELEEQAASANKPNFRGTRCIHSGAMPQNYQDSLGHEVIVNNQCSTNSLQKQLQAVLQWIAASQFNVPMLYFMGDKDGQLEKLPQVSAKAAEKGYSVGGLLQEVMKFAKERQPDEAVGKVARKQLLDWLLANL,not soluble
8,MQMIHKEGWIEVICGSMFSGKSEELIRRVRRATYGRLKVQVFKPAIDNRYSEQEVVSHNGNKVCAIPVERAMSILEQWSEDTDIVAIDEVQFFDEDVIGVVDYLADHGVRVICAGLDQDFRGEPFEPTRTLMAMAEYVTKLQAICPVCGSPASRTQRLIDGKPASYHDPIILVGAAEAYEPRCRHCHQVTNKPSKLPETASSGELEHHHHHH,soluble
9,MRLYMEMTNAQRLILSNQYFLMSQLDPNNANKYKRLQTIVERGYELHMRELNREFGCLPETECREIIDIMEMYHAMQESNRMLDDAARKDVDQRRLTFLGFDMATEAQLVNYVRFLVDSEGLYPQFDKGEHHFNSQMPMLAKYRRMLTTWRNCPRQYHLSGNELRQIMNA,not soluble
10,MSLMNAEQGVCAWAMNHPLEREYHDKEWGRAVHDDTKLFEFLTLEGAQAGLSWLTVLKKREGYRQAFLGYDLQRLAQCDESHVEQIIAEYDVVKHRGKIASVFSNARAALALQQEFGSLDAALWQFVGGQPKINRWVSMSDVPASTEESKAMSKFLKKRGFKFVGETICYAFMQACGLVNDHLVGCPNHSNADKLEGGSHHHHHH,soluble
11,MAFHHGRRCRITPLPETESLQESKKMNINELGARIDRPTIRELIAYATCRNRPISNSTLLRMEKDGRIPCRLKTPLTSPVWDTREVLEALGLQQ,not soluble
12,MGSDKIHHHHHHMYYRKRFCVGRNNERRMKAMARDTGLDHLGAMRAFVRVVEMGSFSAVAKEMHVSTSTVARKITAIEEALGVALLHRSTHSVTLTEAGHIYLERAVTLIADLDDTLRVVAELNAQPSGPLKLTAPVAFGRRHLAPLIAPFLARYPTIQLDVRLTDNHNDLVAGGYDLDIHEGENYLDNLVVHRLSRNDSILCATPGYLDRCGRPATPDDLLHHNCLRYVHPEGDPRWELVRGDARHSVLPAGNLVTDHSELLLEATCAGLGIAEFEIWLVRDLLASGRLEAVLPRYRLHNKLTGEHIYIAYLANRRSSAKLRVLKDFLADQLAHIGELSEVELMKIRDAGA,not soluble
13,MGSDKIHHHHHHMYNYPFENFDFIDFWDDDEYAMNEYIGAPPTEEMIEETERELGYKLPESYIWLMKQHNGGIPFNVCFPCDEPTSWADDHVAITGIMGVDKDKIYSLCGQLGSRFMIEEWGYPDIGVAICDCPSVGHDMIFLDYRECGPQGEPKVVHVDQEDDYYVTFLADNFEEFIRGLVNEEVFDTSEEDERMELEKVRNAAFSPLLSDLCAKCDHPVDTERWIRKISEEIVTDKGFFALHADERSYLLYDIQLWLYTNVYPDTTEEDYLSAYKKIIALDGEFSTGGYASDFVTDWLTRRKESGMVTCNDGILSMAAGTKEALLANRELISNKEQ,not soluble
14,MTTIVPTSEENPFLAVVRFTSQLAWADAGPEAAEPEITRLCREAEESMVAEKWLELSSLMVTSAELVSSKISEKDLECTYTIICSIVKNAKSPEQVLEMVKAIASKVAQQPSDKASLRLKILFNLYNLVDHPYARFQVYMKALTLAVDGKVTEYIVSSFKKIDNFLKEWNIDIKDQRELFLAIANVLKENKSLVNESLKFLTKYLATFSNEDAQVLDEAKEEAVRAVIEFVKASSIFQCDLLDLPAVAQLEKDAKYAPVYQLLKIFLTQRLNAYTEFQNANSGFLQSYGLSNEDCVTKMRLLSLVDLASDESGKIPYTSIKDTLQVNEQDVELWIVKAITAKLIESALPNVNLGQSNGNLSEQSLRLGSIITTIESNKVTEEGSQASSSSAAAIQGLSVR,soluble
15,MKITSYVSFLYCLCLMLASPTVQASEVRTAIFEGKPCINPPHVVGNYPATPFLFYIPTSGERPIKWHAENLPKGLKLDKETGIIKGKVVEKGTYKVMLKAENALGTDTQELLINIGDELLLTPPMGWNSWNTFGRHLTEELLLQTADAMVENGMRDLGYAFINIDDFWQLPERGADGHIQIDKTKFPRGIKYVADYLHERGFKLGIYSDAADKTCGGVCGSYGYEEIDARDFASWGVDLLKYDYCNAPAGRVEAMERYEKMGRALRATDRSIVFSICEWGQREPWKWAKKVGGHLWRVSGDIGDLWNRSTDEKGGLRGILNILEINAPLSEYARPGGWNDPDMLVVGIGGKSKSIGYESEGCTNEQYQSHFALWCMMASPLLCGNDVRQMNDSTLQILLNKDLIAINQDPLGIQAERAIRADHYDVWVKPLSDGSKAIACLNRISGPVDVELNVKTVEGLSLDRVYDVIEGSLVAEASTGWVVKLAPGECKVFICKLEHHHHHH,not soluble
16,MPVDRGAVRDAAKYLRGVRPLDPAALREYVPGQPHEAVVRQVLREQAADLGIIERADGTFVVPPEEPVGPPFNGVSALPERYERVVEAELTAAYGPDWHRGDTGDSLRETIRRFKDDYYRRNPVEYDREVALGYAVYHLAGYYAAVQYVLAGLARDGLLGHDLRVLDLGAGVGGPAVGLFDFLPDEALVEYHAVEPSAAADVLDALLAETPRNVHTTIHRETAESFQPAGEYDLVLACSVLSELDDAASVLRKYADAMAADGTALALAPADKHTSTHLRAVERAVEDDPFTVYGPTPRLWPDRRPTDSGWSFDERPAVEVPAVQSRLADASQDPGEFRHTDVRFSYSLLRRDDRRRHAVELSGDRLLALGDADDRVTDRADLLVAKLSRNLAGADANPVFRVSDGSQTTDCYAVLVRPTSLNGGIEAADYGDLVSIEDALVLWNDDEDAYNLVVDEETVVDAV,not soluble
17,MTEHTAPTAPVADVCLLLEGTWPYVRGGVSSWVNQLILGLPDLTFSVFFIGGQKDAYGKRHYPIPDNVLHIEEHFLETAWSSPNPQTRQGSSETEKALRDLHRFFHYPETPDVEEGDALLDLLAEGRIGREDFLHSKASWEAITAGYERYCTDPSFVNYFWTLRSMQAPVFMLAEAARRMPRARMLHSISTGYAGLLGCILQRRWGCRYLLSEHGIYTKERKIDLAQANWIAENPDEQLSTGLDAEVSYIRRLWIRFFERVGLLTYRAANPIVALYEGNRQRQVLDGAEPRRTRVIPNGIDLDAWTGALERRPPGIPPVVGLVGRVVPIKDVKTFIRAMRGVVSAMPEAEGWIVGPEEEDPDYASECRSLVASLGLQDKVKFLGFRRIGEVLPQLGLMVLTSISEAQPLVILEAWAAGAPVVSSDVGSCRELIEGADAEDRALGRAGEVVAIADPQATSRAILALLRNPQRWQAAQAVGLQRVERYYTEALMLGRYRGLYREATEIA,not soluble
